Measurements published in article PMC5052118 (Nature structural & molecular biology, 2016).
Read-outs that look alike come from different tables or passages of the source.

Legend:
crystal structure = target: the molecule itself; test: crystal structure
Cch [1] = target: T1, Cch (Staphylococcus aureus USA300, UniProt A0A0H2XHF3 1-595); test: EMSA
CchWH = CchWH (Staphylococcus aureus USA300, UniProt A0A0H2XHF3 436-595); test: EMSA
Cch [2] = target: T1, Cch; test: EMSA; remark: listed apart in the source
LP1413 = target: T2, LP1413 (Staphylococcus aureus USA300, UniProt Q0WXP5 1-96); test: EMSA
T2 sequence: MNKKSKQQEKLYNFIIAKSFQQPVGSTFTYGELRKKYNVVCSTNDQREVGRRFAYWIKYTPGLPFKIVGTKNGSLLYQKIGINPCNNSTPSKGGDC

B1: Selenomethionine-derivatized Cch-6xHis (enzyme)
chain: MSYTLFEIGPFALDSFGWKETIPPKKDGDSEKVVRMASPIIVNARFSDPITGVEKLIITNNNGKKDIFESDILTTRNLPSLIKYGYSINEKYIRSLSYALQLMRDRLPLSELYEGVGILETPFGYLISLDKVLKSIQFNQSSPSYPIVDSAYDLTPKGTFDNWFNMYIDEVKGHLLLELAVIFGISALVTSFLKHKHEIEFAGILFSFTGQSSTGKSTAAALAVSVAGNPTKGNETLFRSWNATRNALEGYLSNNYGIPIVFDELSSTTLRDTTGLLYSIAEGQGRQRSNVHGEVKTPKNWGTSVISTSEYSIFNDSAQNDGLRVRTIEINEQFTTNATNADNIKKAVALNYGHVLPLVAKYLINREDEVIQWFYKEVDWFEAKLKDETNNTGIRMFKRYAVITTSAKILGRVLSTDIDIANIRDYFIDYHTHTVSERSLADKAIDVIIQFVAQNRGKFSDEGALKNMFENYGLISLKDDHIEVKIIANVFKQMLNNHQFQDVNNVVNALRDKGFILADRGRQTTKRSVKDNSGKKQSLVFYHLKLDVEFASILGLTKDKSLLQNWTPSNDNKAAKELFKSANEGIGPSGVHEDF
modifications: selenomethionine in place of methionine
stoichiometry N (crystal structure): 6

B2: scc-emsa-3F/4R 60 bp duplex (3' end of cch) (dsDNA)
DNA 1: TTTTAAATCCGCTAATGAAGGGATAGGCCCTTCAGGAGTTCACGAAGATTTCTAATTGTC
DNA 2: GACAATTAGAAATCTTCGTGAACTCCTGAAGGGCCTATCCCTTCATTAGCGGATTTAAAA
binding result (Cch [1]): binds | binding result (CchWH): binds

B3: HELA-8R ssDNA (ssDNA)
DNA: CGCTTTAAAAGAAGTCAACGTCTTACCACTTCCAGTTGTATGCCATACATATCC
binding result (Cch [2]): binds

B4: iter-int-1F ssDNA 40 nt (ssDNA)
DNA: GAGTAATGATATGTGGCTATGTCTTAATATATGTGAAGAA
binding result (LP1413): binds

B5: iter-int-1F/inter-int-2R 40 bp duplex (dsDNA)
DNA 1: B4 DNA
DNA 2: TTCTTCACATATATTAAGACATAGCCACATATCATTACTC
binding result (LP1413): no binding
